Source: patent US20090311243A1

Experiments:
[1] = target: recombinant Wnt3a protein (R&D systems); test: cell-based or functional assay
human Fzd8 (human) = human Fzd8 (human) (UniProt Q9H461); test: cell-based or functional assay
UniProt Q9H461, sequence (Q9H461 28-694): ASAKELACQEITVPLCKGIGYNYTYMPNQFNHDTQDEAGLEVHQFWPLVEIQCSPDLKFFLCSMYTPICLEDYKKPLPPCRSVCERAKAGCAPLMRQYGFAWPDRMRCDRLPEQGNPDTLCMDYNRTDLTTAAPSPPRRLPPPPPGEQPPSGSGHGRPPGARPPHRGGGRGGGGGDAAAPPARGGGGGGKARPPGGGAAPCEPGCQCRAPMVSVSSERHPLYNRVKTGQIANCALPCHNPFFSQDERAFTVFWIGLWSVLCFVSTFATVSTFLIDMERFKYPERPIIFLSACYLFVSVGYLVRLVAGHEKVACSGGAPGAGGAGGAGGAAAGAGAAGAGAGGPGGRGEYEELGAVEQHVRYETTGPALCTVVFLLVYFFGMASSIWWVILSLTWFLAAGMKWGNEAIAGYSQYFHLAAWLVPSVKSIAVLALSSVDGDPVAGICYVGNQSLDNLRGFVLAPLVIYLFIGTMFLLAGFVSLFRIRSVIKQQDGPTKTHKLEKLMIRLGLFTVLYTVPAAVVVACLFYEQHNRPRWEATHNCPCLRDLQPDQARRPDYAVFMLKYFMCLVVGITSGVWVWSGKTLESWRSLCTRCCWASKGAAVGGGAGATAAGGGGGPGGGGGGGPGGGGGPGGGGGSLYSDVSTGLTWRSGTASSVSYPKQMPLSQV

recombinant Wnt3a protein (R&D systems), sequence (P27467 19-352): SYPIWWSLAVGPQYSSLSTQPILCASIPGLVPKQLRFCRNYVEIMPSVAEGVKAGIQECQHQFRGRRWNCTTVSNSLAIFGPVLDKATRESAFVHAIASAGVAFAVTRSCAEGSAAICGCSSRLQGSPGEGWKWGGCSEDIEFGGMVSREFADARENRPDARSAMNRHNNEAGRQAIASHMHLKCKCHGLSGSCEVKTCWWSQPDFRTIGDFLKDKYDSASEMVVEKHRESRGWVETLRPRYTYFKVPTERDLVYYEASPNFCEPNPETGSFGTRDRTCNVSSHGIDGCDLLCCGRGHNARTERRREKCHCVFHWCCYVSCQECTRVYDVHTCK

In the case of “murine Fzd8 CRD Fc fusion (R&D systems) (from UniProt Q61091 28-173)”, the ND50, inhibition of Wnt3a-induced TCF reporter luciferase activity in Fzd8:CHOK1 cells [1] is reported as 0.027 µg/mL.

“recombinant Wnt3a protein (R&D systems) (ligand)” was tested, and the TCF/LEF reporter (TOPFlash) luciferase activity, normalized to Renilla luciferase (human Fzd8 (human)) was 10.4 fold.

With “human Wnt8a (from UniProt Q9H1J5 25-351) (ligand)” the Wnt8a mediated SOX9 mRNA reduction in primary chondrocytes, rescue by Fzd8 siRNA (quantitative PCR) (human Fzd8 (human)) was 52%.
